Measurements published in patent publication US20230301998.
Positions count from the first letter of the chain named.

Legend:
V5-tagged IFI204 R538A = system: T1, V5-tagged IFI204 R538A
T1 sequence: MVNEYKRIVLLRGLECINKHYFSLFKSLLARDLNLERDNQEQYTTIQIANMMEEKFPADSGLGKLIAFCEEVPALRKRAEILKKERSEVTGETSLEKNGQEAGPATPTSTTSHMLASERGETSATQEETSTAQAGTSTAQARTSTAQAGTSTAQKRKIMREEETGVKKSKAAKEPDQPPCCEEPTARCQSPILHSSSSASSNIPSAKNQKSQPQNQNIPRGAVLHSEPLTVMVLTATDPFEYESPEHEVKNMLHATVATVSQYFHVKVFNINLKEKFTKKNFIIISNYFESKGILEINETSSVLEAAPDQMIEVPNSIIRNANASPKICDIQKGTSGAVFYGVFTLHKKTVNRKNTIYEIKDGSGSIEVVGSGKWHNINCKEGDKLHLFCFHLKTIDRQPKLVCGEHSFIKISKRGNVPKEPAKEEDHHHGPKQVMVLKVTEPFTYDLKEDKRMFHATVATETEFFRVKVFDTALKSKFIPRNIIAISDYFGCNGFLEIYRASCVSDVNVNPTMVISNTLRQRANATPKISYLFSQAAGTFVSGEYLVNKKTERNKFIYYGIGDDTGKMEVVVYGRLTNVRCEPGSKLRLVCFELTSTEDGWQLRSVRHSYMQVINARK

V5-tagged IFI204 WT = system: T2, V5-tagged IFI204 WT
T2 sequence: T1 sequence with A538R

[1] = system: T3, V5-tagged IFI204 RR12/538AA
T3 sequence: T1 sequence with R12A

V5-tagged IFI204 R12A = system: T4, V5-tagged IFI204 R12A
T4 sequence: T1 sequence with R12A, A538R

Substance: recombinant active PRMT5 plus WDR77
- in vitro methylation (3H-SAM, autoradiography) (V5-tagged IFI204 R538A): Immunopurified WT IFI204, but not a mutant form lacking either Arg12, Arg538 or both, was methylated in vitro by recombinant PRMT5
- in vitro methylation (3H-SAM, autoradiography) (V5-tagged IFI204 WT): IFI204 WT protein was methylated by PRMT5 /WDR77
- in vitro methylation (3H-SAM, autoradiography) [1]: Immunopurified WT IFI204, but not a mutant form lacking either Arg12, Arg538 or both, was methylated in vitro by recombinant PRMT5
- in vitro methylation (3H-SAM, autoradiography) (V5-tagged IFI204 R12A): Immunopurified WT IFI204, but not a mutant form lacking either Arg12, Arg538 or both, was methylated in vitro by recombinant PRMT5
